# Measurements reported in patent publication US11285284B2, “Methods for treatment of pulmonary lung diseases with improved therapeutic efficacy and improved dose efficiency” (PNEUMA RESPIRATORY, INC., priority 2016, dated 2022).
# Where “and” joins values, the source holds several entries; their conditions need not be identical. Identical values can stand only once.
# Legend:
# [1] = Enbrel stability after aerosol generation, size exclusion chromatography; assay type: physicochemical; details: for Peak Area %, Peak 1 / Peak Area %, Peak 2 / Peak Area %, Peak 4 / Peak Area %, Peak 5: SEC UV 280 nm
# Text: Alternately, to determine the stability of active agent after droplet generation, the generated stream of droplets including the active agent may be collected and […] may be employed to monitor for any changes in large molecule aggregation and protein fragment content. Soluble protein aggregates and protein fragment content may be calculated by comparing respective peak area under the SEC-HPLC curve of dispensed protein solutions with controls (solutions remaining in the device reservoir). Drug solutions for testing include Enbrel, (ENBREL® single-use prefilled syringes in 25 mg (0.51 mL of a 50 mg/mL solution of etanercept), and insulin, (Humalog, 200 units/ml, 3 ml […] is performed with a YarraTM 3 um SEC-2000 LC column 300×7.8 mm, SecurityGuard cartridge kit and SecurityGuard cartridges GFC-2000, 4×3 mm ID. Fifty microliters of Enbrel from the syringe (ENBREL® single-use prefilled syringes in 25 mg/0.51 mL of a 50 mg/mL solution of etanercept) is diluted (4:1) (4 parts, 200 mcl of the mobile phase buffer solution to 1 part, 50 mcl Enbrel from syringe). Fifty microliter of the diluted Enbrel is injected and separation was performed at a flow rate of 1.0 ml/min. The mobile phase buffer system included a PHOS. BUFF. SALINE. […] UV detection is performed at 280 nm. […] An ampule/cartridge is filled with either 0.20 ml of Enbrel® (50 mg/ml) diluted 4:1 (10 mg/ml)(4 parts (200 mcl) of PBS and 0.025% NaN3 and 1 part (50 mcl of Enbrel solution from the syringe). After 20 actuations and aerosolization, about 150 mcl of the aerosolized Enbrel solution is recovered and collected in the polypropylene tube located below the ejector mechanism. The control consists of the diluted Enbrel solution, 50 mcl of which is injected into the SEC column for analysis.
# [2] = Gravimetric analysis of delivered dose per actuation; assay type: physicochemical; details: for total delivered dose per actuation: from gravimetric mass and solution concentration; for average mass ejected per dose (actuation), gravimetric: solution filled ampule weighed before and after dosing, average of five doses
# Protocol: Gravimetric analysis was performed by weighing the Enbrel solution filled ampule before and after dosing. The average of five doses (actuations) were analyzed with an average of 4.25 mg+/−0.15 mg. The total delivered dose of Enbrel per actuation is therefore […] per actuation.
# Gravimetric analysis was performed by weighing the Insulin solution filled ampule before and after dosing. The average of five doses (actuations) were analyzed with an average of 5.01 mg+/−0.53 mg. The total delivered dose of Insulin per actuation is therefore 34.8 mcg per actuation.
# [3] = Gel electrophoresis of active agent after droplet generation; assay type: physicochemical
# Text: Gel Electrophoresis: To determine the stability of active agent after droplet generation, the generated stream of droplets including the active agent is collected and the molecular weight of the active agent is verified using gel electrophoresis.
# [4] = system: patients with cystic fibrosis; details: cited from earlier work
# [5] = Insulin stability after aerosol generation, size exclusion chromatography; assay type: physicochemical
# Text: Alternately, to determine the stability of active agent after droplet generation, the generated stream of droplets including the active agent may be collected and SEC-HPLIC may be employed to monitor for any changes in large molecule aggregation and protein fragment content. Soluble protein aggregates and protein fragment content may be calculated by comparing respective peak area under the SEC-HPLC curve of dispensed protein solutions with controls (solutions remaining in the device reservoir).
# Drug solutions for testing include Enbrel, (ENBREL® single-use prefilled syringes in 25 mg (0.51 mL of a 50 mg/mL solution of etanercept), and insulin, (Humalog, 200 units/ml, 3 ml kwikpens)
# To calculate and compare effects of droplet generation through an ejector mechanism of the disclosure, the total area under the curve of the UV signal at 280 nm versus elution time for controls is compared with the aerosolized samples, which is set to 100%.
# Aerosol collection and SEC is performed in a similar fashion as for the Enbrel analysis and aerosol collection.
# Fifty microliters of the collected aerosol spray is injected onto the SEC column for analysis, while 50 mcl of the Kwikpen insulin solution is injected onto the SEC column for control samples.
# [6] = average of aerosolized S1 and S2
# [7] = control, Enbrel diluted 4:1 (10 mg/ml), not aerosolized
compound,measurement,setting,value
Enbrel,"Peak Area %, Peak 1","[1]; aerosolized with test device, 20 actuations, ret time about 5.3 min",2.796% and 3.476%
same,"Peak Area %, Peak 2","[1]; aerosolized with test device, 20 actuations, ret time about 5.8 min",90.789% and 92.112%
same,"Peak Area %, Peak 4","[1]; aerosolized with test device, 20 actuations, ret time about 13 min",0.357% and 0.352%
same,"Peak Area %, Peak 5","[1]; aerosolized with test device, 20 actuations, ret time about 25 min",5.130% and 3.428% and 5.123%
same,"Peak Area %, Peak 4, Avg.",[1]; [6],0.3545
same,"Peak Area %, Peak 5, Avg.",[1]; [6],4.2755
same,"Peak Area %, Peak 4",[1]; [7],0%
same,"Peak Area %, Peak 5",[1]; [7],0%
same,"Peak Area %, Peak 1","[1]; control, Enbrel diluted 4:1 (10 mg/ml), not aerosolized, ret time 4.3-5.3 min",2.428% and 3.041%
same,"Peak Area %, Peak 2","[1]; control, Enbrel diluted 4:1 (10 mg/ml), not aerosolized, ret time 4.8-5.8 min",96.676% and 95.909%
same,fraction of the dose forming molecular fragments,[1]; fragments with elution times of 13 and 25 minutes,4.6%
same,fraction structurally unchanged after delivering an aerosol dose,"[1]; test device, SEC",95.4%
same,total delivered dose per actuation,[2],42.5 µg
same,"average mass ejected per dose (actuation), gravimetric",[2],4.25 mg
same,change in electrophoretic mobility (molecular weight) of post-aerosol active agent versus control,[3],negligible change
NC[C@H]1O[C@H](O[C@H]2[C@H](O)[C@@H](O[C@H]3O[C@H](CO)[C@@H](O)[C@H](N)[C@H]3O)[C@H](N)C[C@@H]2N)[C@H](N)C[C@@H]1O [tobramycin],effect on pulmonary function and kidney side effects,[4]; administration by inhalation,significantly improves pulmonary function without severe side effects to kidney functions
same,toxicity of serum levels,[4]; intravenous administration,toxic to the kidneys
"Insulin: insulin, Humalog, 200 units/ml, 3 ml kwikpens","Peak Area %, Peak 3, Avg.",[5]; [6],2.4905
same,"Peak Area %, Peak 3","[5]; control, Kwikpen insulin solution 200 U/ml, not aerosolized",0%
same,fraction of the ejected dose forming a fragment,[5]; fragment eluting at ~25 minutes,2.5%
same,fraction of the ejected dose structurally unchanged,"[5]; test device, SEC",97.5%
same,total delivered dose per actuation,[2],34.8 µg
same,"average mass ejected per dose (actuation), gravimetric",[2],5.01 mg
adalimumab,change in electrophoretic mobility (molecular weight) of post-aerosol active agent versus control,[3],negligible change
bevacizumab: antibody (Avastin),change in electrophoretic mobility (molecular weight) of post-aerosol active agent versus control,[3],negligible change
